We go through 1 molecule from patent CN113637074A (SHANGHAI HUAIYUE BIOTECHNOLOGY CO LTD, dated 2021).

Assay [1] concerns the target T1, 带His标签的NKp30蛋白 (human, UniProt O14931 19-138, limits assumed).
T1 construct: also called 人NKp30; not shown: His tag
T1 sequence (looked up): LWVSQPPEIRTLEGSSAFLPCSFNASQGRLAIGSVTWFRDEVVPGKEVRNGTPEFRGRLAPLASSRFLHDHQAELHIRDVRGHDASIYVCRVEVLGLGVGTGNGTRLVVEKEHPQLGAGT
Kind of assay: ELISA, His-tagged protein coated at 1 μg/ml, anti-human IgG Fc-HRP. (An ELISA detects its analyte on a solid surface through an enzyme-linked reagent.)

Assay [2] concerns the target T2, 带His标签的NKp44蛋白 (human, UniProt O95944 22-190, limits assumed).
T2 construct: also called 人NKp44; not shown: His tag
T2 sequence (looked up): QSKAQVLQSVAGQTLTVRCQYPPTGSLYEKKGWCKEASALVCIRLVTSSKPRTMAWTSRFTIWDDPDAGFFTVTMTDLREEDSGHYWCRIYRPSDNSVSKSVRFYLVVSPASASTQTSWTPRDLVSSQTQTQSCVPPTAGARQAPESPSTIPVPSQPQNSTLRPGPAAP
The description is as above.

B1: NKp46-1 (antibody, V domains shown)
VH: QVQLVQSGAEVKKPGSSVKVSCKASGGTFSNYGISWVRQAPGQGLEWIGRIIPYFGITNYAQKFQGRVTITADKSTSTAYMELSSLRSEDTAVYYCADNHLLRPGQNYYPWDYWGQGTTVTVSS
VL: DIQMTQSPSSLSASVGDRVTITCRASQGISNALAWYQQKPGKAPKLLIYAASRLESGVPSRFSGSGSGTDFTLTISSLQPEDFATYYCQQHYSTPPTFGQGTKVEIK
notes: Lead antibody from a human common light chain phage library; also called Ab-1; 孔A5
For the molecule B1, the binding result in assay [1] and in assay [2] was “no binding (tested: 10μg/ml)” each time.
